Positions count from the first letter of the chain named.
Legend:
[1] = target: CRP (catabolite activator protein, cAMP receptor protein) (Escherichia coli, UniProt P0ACJ8 P0ACJ8:2-210); assay: DRaCALA; 100 nM CRP, 4 nM probe, 200 uM cAMP; details: tags: His-CRP expressed from pBAD-CRP, Ni-NTA and anion exchange; chain copies: 2; label: 5'-32P
[2] = target: MBP (maltose binding protein) (UniProt P0AEX9 P0AEX9:27-396); assay: DRaCALA; 100 nM MBP, 4 nM probe, 200 uM cAMP

Sequence of CRP (catabolite activator protein, cAMP receptor protein) (P0ACJ8 2-210, one chain of several): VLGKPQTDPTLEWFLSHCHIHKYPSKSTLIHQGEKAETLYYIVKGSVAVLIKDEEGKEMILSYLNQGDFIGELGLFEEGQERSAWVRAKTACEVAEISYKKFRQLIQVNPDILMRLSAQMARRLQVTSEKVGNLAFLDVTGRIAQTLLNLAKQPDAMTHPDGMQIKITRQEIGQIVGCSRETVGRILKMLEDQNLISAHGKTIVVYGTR

B1: 10:G-C oligo duplex (gd130/gd131) (dsDNA)
DNA 1: AGGAGGAATAAATGTCATCTAGATGACATTTTAGAGGAGG
DNA 2: CCTCCTCTAAAATGTCATCTAGATGACATTTATTCCTCCT
binding result [1]: no binding

B2: 8,10:G-C oligo duplex (gd132/gd133) (dsDNA)
DNA 1: B1 DNA 1 with G14C, C27G
DNA 2: B1 DNA 2 with G14C, C27G
binding result [1]: no binding

B3: ICAP oligo duplex (gd126/gd127) (dsDNA)
DNA 1: B1 DNA 1 with C16G, G25C
DNA 2: B1 DNA 2 with C16G, G25C
binding result [2]: no binding
